Data reported in publication PMC10801496.

What was measured:
[1] = molecular target: human CD47 with His tag (human) (UniProt Q08722); test: ELISA; competition with SIRPa-Fc
CD47 (Homo sapiens) = CD47 (Homo sapiens) (UniProt Q08722); conditions: cited from earlier work
Sequence of CD47 (Homo sapiens) (Q08722 19-323): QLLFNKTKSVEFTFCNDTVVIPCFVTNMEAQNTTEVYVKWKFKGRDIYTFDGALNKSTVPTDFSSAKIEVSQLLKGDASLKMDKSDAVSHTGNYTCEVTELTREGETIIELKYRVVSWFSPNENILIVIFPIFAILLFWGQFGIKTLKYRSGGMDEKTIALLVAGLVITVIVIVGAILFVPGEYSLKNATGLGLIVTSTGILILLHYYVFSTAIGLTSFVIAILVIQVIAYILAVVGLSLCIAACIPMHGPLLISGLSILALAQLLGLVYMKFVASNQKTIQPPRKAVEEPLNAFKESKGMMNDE

Sequence of SIRPα (P97797 32-373): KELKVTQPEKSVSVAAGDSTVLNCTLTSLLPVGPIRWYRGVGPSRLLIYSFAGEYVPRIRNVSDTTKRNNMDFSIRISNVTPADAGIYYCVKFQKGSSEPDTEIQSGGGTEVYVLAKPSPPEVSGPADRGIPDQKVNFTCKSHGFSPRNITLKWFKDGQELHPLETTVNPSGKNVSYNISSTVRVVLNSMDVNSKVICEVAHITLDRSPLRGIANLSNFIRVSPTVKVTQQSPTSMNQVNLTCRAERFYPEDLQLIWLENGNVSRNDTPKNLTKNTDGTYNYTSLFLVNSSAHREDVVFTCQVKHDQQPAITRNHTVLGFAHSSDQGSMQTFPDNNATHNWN
Sequence of human CD47 with His tag (human) (Q08722 19-323): as the sequence (Q08722 19-323) above

Substance | IC50 [1] [nM] | Kd (CD47 (Homo sapiens)) [nM]
B6H12.2 | 233 | –
SIRPα (from UniProt P97797) | – | 300
